B1: ILK ankyrin repeat domain (ILK 1-174, from thrombin-cleaved GST-ILK 1-192) (domain or fragment, human, UniProt Q13418 1-174, looked up)
chain: MDDIFTQCREGNAVAVRLWLDNTENDLNQGDDHGFSPLHWACREGRSAVVEMLIMRGARINVMNRGDDTPLHLAASHGHRDIVQKLLQYKADINAVNEHGNVPLHYACFWGQDQVAEDLVANGALVSICNKYGEMPVDKAKAPLRELLRERAEKMGQNLNRIPYKDTFWKGTTR
B4: PINCH2 LIM1 domain (PINCH2 6-68), His tag removed (domain or fragment, human, UniProt Q7Z4I7-3 6-68, looked up)
chain: ANAVCQRCQARFSPAERIVNSNGELYHEHCFVCAQCFRPFPEGLFYEFEGRKYCEHDFQMLFA

Test [1] deals with B4. The test is described as follows: crystal structure.
Test [2] addresses B1. The test is described as follows: pull-down.
Test [3] addresses T1, ILK ankyrin repeat domain W110A (human, UniProt Q13418 1-174, W110A).
T1 sequence (looked up): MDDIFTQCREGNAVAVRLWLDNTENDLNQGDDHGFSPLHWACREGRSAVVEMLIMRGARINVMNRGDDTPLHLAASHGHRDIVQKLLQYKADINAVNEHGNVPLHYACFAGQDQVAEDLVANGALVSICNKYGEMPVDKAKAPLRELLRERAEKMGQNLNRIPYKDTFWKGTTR
The test is described as follows: pull-down.

The target in test [4] is B1. Kind of test: pull-down. This is another data set of the same source.
Test [5] addresses B1. The test is described as follows: pull-down. The source holds these as a separate data set.

Read-outs that look alike come from different tables or passages of the source.

As for B1, in test [1], the “stoichiometry N” value came out at 1.

B2: His-tagged PINCH2 LIM1 R12A (domain or fragment, human, UniProt Q7Z4I7-3 6-68, looked up)
chain: ANAVCQACQARFSPAERIVNSNGELYHEHCFVCAQCFRPFPEGLFYEFEGRKYCEHDFQMLFA
On to B2, for which the binding result in test [2] was “binds”.

B3: His-tagged PINCH2 LIM1 (PINCH2 6-68) (domain or fragment, human, UniProt Q7Z4I7-3 6-68, looked up)
chain: ANAVCQRCQARFSPAERIVNSNGELYHEHCFVCAQCFRPFPEGLFYEFEGRKYCEHDFQMLFA
With B3, the binding result in test [3] is “binds”.

As for B4, the IC50 came out at 2300 nM in test [4] and 4400 nM in test [5].

B5: soluble PINCH1 LIM1 domain, His tag removed (domain or fragment)
chain: ASATCERCKGGFAPAEKIVNSNGELYHEQCFVCAQCFQQFPEGLFYEFEGRKYCEHDFQMLFA
Consider B5, for which 2900 nM corresponded to half-maximal inhibition in test [4] (IC50).

A word on the stoichiometry N: it is a count of units in the complex or per binding partner. As usually defined, the IC50 is the concentration at which inhibition is half-maximal. A higher IC50 goes with a need for much substance.

The values are drawn from article PMC2841223 (Journal of structural biology, 2009).
